Data as given in patent publication US20220125947A1.
Substitutions are numbered along the chain they refer to.

B1: VG9B157 (antibody, human IgG1, lambda, V domains shown)
VH: EVQLLESGGGLVKPGASLKLSCAASGFTFSNHGMSWVRQTSDKRLEWVASITRGGDTTYYPDNVKGRFTISRENAKNTLYLQMSSLKSDDTALYYCTRGPLTVGYAMDYWGQGTTVTVSS
VL: SSELTQDPAVSVALGQTVRITCQGDSLRSYYATWYQQKPGQAPILVIYGENNRPSGIPDRFSGSRSGNTASLTITGAQAEDEADYYCNSRDTGDHHLVFGGGTKLTVLG
B2: VG9B68 (antibody, human IgG1, kappa, V domains shown)
VH: EVQLVESGAEVKKPGSSVKVSCKASGGTFSTYAISWVRQAPGQGLEWMGGIIPIFGTATYAQRFQDRVMITADKSTTTAYMELSSLRSEDTAVFYCARGVGWGSDYYYGLDVWGQGTMVTVSS
VL: EIVMTQSPLSSPVTLGQPASISCRSSQSLVHSDGNTYLSWLQQRPGQSPRLLIYKISNRFSGVPDRFSGSGAGTDFTLRITRVEPEDVGVYYCIQATHHPLTFGGGTRLEIKR
B3: VG9B430 (antibody, human IgG1, kappa, V domains shown)
VH: EVQLLESGGGLVKPGGSLRLSCSASGFTFSSYDMNWVRQAPGKGLEWVSSISSSSSYIYYADSVKGRFTISRDNAKNSLYLQMNSLRAEDTAVYHCARDVGVTTDYYYYGMDVWGQGTMVTVSS
VL: EIVLTQSPGTLSLSPGDRATLSCRASQSVASSYLAWYQQKPGQSPRLLIYGASSRATGIPDRFSGSGSGTDFTLTISRLEPEDFAVYYCQQYGSSPPYTFGQGTKLEIKR
B4: VG9B73 (antibody, human IgG1, kappa, V domains shown)
VH: EVQLVQSGGGLVKPGGSLRLSCAASGFTFSNYDMNWVRQAPGKGLEWVSSISSSSSYIYYADSVKGRFTISRDNARNSLFLQMSSLRAEDTAVYYCAREIGVTGTTYYQDYGMDVWGQGTTVTVSS
VL: B3 VL with L4M, D17E, V29F, A30S, S32N, S44A, V86L, Y98F, L106V
B5: VG9B88 (antibody, human IgG1, kappa, V domains shown)
VH: EVQLVESGGGLVKPGGSLRLSCAVSGFTFSSYTMNWVRQAPGKGLEWVSSISTSSSYIDYADSVKGRFTISRDNAKKSLYLQMNSLRAEDTAVYYCARDGDMVAPIKGSFDYWGQGTLVTVSS
VL: EIVLTQSPLSLPVTPGEPASISCRSSQSLLNSDDGNTYLDWYLQKPGQSPQLLIYTLSYRASGVPDRFSGSGSGTDFTLKISRVEAEDVGVYYCMQRIEFPITFGQGTRLEIKR
B6: VG9B98 (antibody, human IgG1, kappa, V domains shown)
VH: EVQLVQSGGDLVKSGGSLRLSCAASGFTFSSYSMYWVRQAPGKGLEWVSSIGSSSTYIFYADSVKGRFTISRDNAMTSLYLQMNRLGAEDSAVYYCARDGELGPFEYWGQGTLVTVSS
VL: EIVLTQSPGTLSLSPGERATLSCRASQSVSTSYLAWFQQKPGQAPRLLIFGTSSRATGIPDRFSGSGSGTDFTLTISRLEPEDFAVYHCLQYGRSPLTFGGGTKVDIKR
B7: VG9B58 (antibody, human IgG1, kappa, V domains shown)
VH: QVQLQESGPGLVKPSETLSLTCTVSGGSIKSSYWTWIRQPPGKGLEWIGYMFYLGSTNYNPSLKSRVTMSIDTSRNQFSLKLSSVTAADTAVYYCSRERPVLDAFDIWGQGTMVTVSS
VL: DIQMTQSPSAMSASVGDRVTITCRASQDITNYLAWFQQKPGKVPKRLIYAASSLQGGVPSRFSGSGSGTEFTLTISSLQPEDFSTYYCLQHDTYPYTFGQGTKVDIKR
B8: VG9B143 (antibody, human IgG1, lambda, V domains shown)
VH: EVQLVESGGGLVQPGGSLRLSCAASGFTFSTYGMNWVRQAPGKGLEWISYISTSSYTIYYSDSVKGRFTVSRDNAKNSLYLQMNSLRDEDTAVYYCAREGDWWYFDLWGRGTTVTVSS
VL: QSALTQPASVSGSPGQSITISCTGTSSDVGGYNYVSWYQQHPGKAPKLMIYEVSNRPSGVSYRFSGSKSGNTASLTISGLQAEDEADYYCSSYTSSSTLVFGGGTKLTVLG
B9: VG9B384 (antibody, human IgG1, lambda, V domains shown)
VH: QVQLQESGPALVKPTQTLTLTCTFSGFSLSSSGMCVSWIRQPPGKALEWLTLIDWFDDKYYSTSLKTRLTISKDTSKNQVVLTMTNMDPVDTATYYCARIRGTGAYYYGLDVWGQGTMVTVSS
VL: SYELMQPPSVSVSPGQTASITCSGNELGDKYASWYQQQPGQSPVLVIYQDNKRPSGIPERFSGSNSGNTATLTISGTQAMDEADYYCQAWDSSKVVFGGGTKLTVLG
B10: VG9B472 (antibody, human IgG1, kappa, V domains shown)
VH: QVQLVESGGGLVKPGGSLRLSCAASGFTFSHYDMNWVRQAPGKGLEWVSSISSSSSYIFYADSVKGRFTISRDNAKNSLLLQMNSLRAEDTAVYHCARDRGVGDTSDYYSFGLDVWGQGTTVTVSS
VL: EIVLTQSPSSLSASVGDRVTITCRASQGIATYLAWYQQKPGKVPNLLIYAASTLQSGVPSRFSGSGSGTDFTLTISSLQPEDVATYYCQKYNSAPPWTFGQGTKVEIKR
B11: VG9B195 (antibody, human IgG1, lambda, V domains shown)
VH: EVQLVESGGGLVKPGGSLRLSCAASGFTFSPYTMNWVRQAPGKGLEWVSSISSSSSYMYYADSVKGRFTISRDNAKNSLYLQMNSLRAEDTAVYYCARDGDLVGPTYYFDYWGQGTLVTVSS
VL: B9 VL with N25D, E26K, S33C, Q38K, D50H, N68K, S93T, K94T
B12: VG9B194 (antibody, human IgG1, lambda, V domains shown)
VH: EVQLLESGAEVKKPGASVKVSCKASGYTFTGDYMHWVRQAPGQGLEWMGWINPNSGYTNNAEKFQGRVTMTRDTSISTAYMELSRLSSDDTAVYYCTRELDALDVWGQGTMVTVSS
VL: QSVLTQPPSASGSPGQSVTISCTGTSSDVGGYNYVSWYQQHPGKAPKLMIYEVSKRPSGVPDRFSGSKSGNTASLTVSGLQAEDEADYYCNSYAGSNNFEVFGGGTKVTVLG

Biological target: Vg9/Vd1 T cell receptor on SKW3 cells (UniProt Q99603)
Test: flow cytometry, DRC binding 37 C, SKW3 cells expressing Vg9/Vd1

Sequence of Vg9/Vd1 T cell receptor on SKW3 cells (Q99603 21-122): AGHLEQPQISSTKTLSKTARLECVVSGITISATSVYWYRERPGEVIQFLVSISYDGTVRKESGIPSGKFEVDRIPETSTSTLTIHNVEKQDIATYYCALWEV

Max. Activity (fold over background) | Binder
0.96 | B1
2.08 | B2

Biological target: Vg5/Vd2 T cell receptor on SKW3 cells (UniProt A0JD36)
Test: flow cytometry, dose-response binding at 37 C on SKW3 cells expressing Vg5/Vd2

Sequence of Vg5/Vd2 T cell receptor on SKW3 cells (A0JD36 20-115): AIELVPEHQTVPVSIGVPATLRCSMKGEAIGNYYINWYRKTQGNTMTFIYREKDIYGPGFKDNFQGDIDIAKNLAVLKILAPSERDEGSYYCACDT

Max. Activity (fold over background) | Binder
1.49 | B3
1.79 | B4
18.8 | B5
2.47 | B6
1.49 | B7
1.07 | B8
18.7 | B9
2.22 | B10

Biological target: Vg5/Vd2 T cell receptor on SKW3 cells (AG000003285; CLI000001325 (C3820A)) (UniProt A0JD36)
Test: flow cytometry, DRC binding at 37°C on SKW3 cells expressing Vg5/Vd2

Sequence of Vg5/Vd2 T cell receptor on SKW3 cells (AG000003285; CLI000001325 (C3820A)) (A0JD36 20-115, stated change not applied): as the sequence (A0JD36 20-115) above

Max. Activity (fold over background) | Binder
10.3 | B11

Biological target: Vg5/Vd2 T cell receptor on SKW3 cells (UniProt A0JD36)
Test: as above

Max. Activity (fold over background) | Binder
148 | B12

Biological target: Vg9/Vd1 T cell receptor on SKW3 cells (UniProt Q99603)
Test: flow cytometry, dose-response binding at 37 C on SKW3 cells expressing Vg9/Vd1

Max. Activity (fold over background) | Binder
325 | B3
317 | B4
346 | B5
344 | B6
350 | B7
241 | B8
290 | B9
328 | B10

Biological target: Vg5/Vd2 T cell receptor on SKW3 cells (UniProt A0JD36)
Test: flow cytometry, DRC binding 37 C, SKW3 cells expressing Vg5/Vd2

Max. Activity (fold over background) | Binder
11.7 | B1
207 | B2

Biological target: Vg9/Vd2 T cell receptor on SKW3_4 cells (UniProt Q99603)
Test: flow cytometry, dose-response binding at 37 C on SKW3_4 cells expressing Vg9/Vd2

Sequence of Vg9/Vd2 T cell receptor on SKW3_4 cells (Q99603 21-122, chain 1 of 2): as the sequence (Q99603 21-122) above
Sequence of Vg9/Vd2 T cell receptor on SKW3_4 cells (A0JD36 20-115, chain 2 of 2, further chain): as the sequence (A0JD36 20-115) above

Max. Activity (fold over background) | Binder
143 | B3
118 | B4
154 | B5
154 | B6
160 | B7
97.3 | B8
121 | B9
171 | B10

Biological target: Vg9/Vd1 T cell receptor on SKW3 cells (AG000003287; CLI000001326 (C3821A)) (UniProt Q99603)
Test: flow cytometry, DRC binding at 37°C on SKW3 cells expressing Vg9/Vd1

Sequence of Vg9/Vd1 T cell receptor on SKW3 cells (AG000003287; CLI000001326 (C3821A)) (Q99603 21-122, stated change not applied): as the sequence (Q99603 21-122) above

Max. Activity (fold over background) | Binder
300 | B11

Biological target: Vg9/Vd1 T cell receptor on SKW3 cells (UniProt Q99603)
Test: as above

Max. Activity (fold over background) | Binder
6.29 | B12

Biological target: Vg9/Vd2 T cell receptor on SKW3_4 cells (UniProt Q99603)
Test: flow cytometry, DRC binding 37 C, SKW3_4 cells expressing Vg9/Vd2

Max. Activity (fold over background) | Binder
11 | B1
124 | B2

Biological target: Vg9/Vd2 T cell receptor on SKW3_4 cells (AG000003284; CLI000001324 (C3819A)) (UniProt Q99603)
Test: flow cytometry, DRC binding at 37°C on SKW3_4 cells expressing Vg9/Vd2

Sequence of Vg9/Vd2 T cell receptor on SKW3_4 cells (AG000003284; CLI000001324 (C3819A)) (Q99603 21-122, chain 1 of 2): as the sequence (Q99603 21-122) above
Sequence of Vg9/Vd2 T cell receptor on SKW3_4 cells (AG000003284; CLI000001324 (C3819A)) (A0JD36 20-115, chain 2 of 2, further chain): as the sequence (A0JD36 20-115) above

Max. Activity (fold over background) | Binder
119 | B11

Biological target: Vg9/Vd2 T cell receptor on SKW3_4 cells (UniProt Q99603)
Test: as above

Max. Activity (fold over background) | Binder
151 | B12
